To fix the notation:
B1: SWI/SNF complex subunit SMARCC1, residues 620 to 663; numbered along this chain, Q92922 (parent)
chain: GREWTEQETLLLLEALEMYKDDWNKVSEHVGSRTQDECILHFLR

± gives the uncertainty stated by the source.

The data set covers variants of B1. Kind of data set: abundance fitness (aPCA) (normalised: wild type 0, dead -1); higher = more abundant; growth selection in yeast, the domain comes from the species named. As to conditions: Homo sapiens.
Regarding GREWTEQETLLLLEALEMYKDDWNKVMEHVGSRTQDECILHFLR [S27M], the abundance fitness was -0.248 ± 0.11. The value for GREWTEQETLLLLEALEMYKDDWNKVREHVGSRTQDECILHFLR [S27R] was 0.01 ± 0.068; that for GREWTEQETLLLLEALEMYKDDWNKVFEHVGSRTQDECILHFLR [S27F] was -0.516 ± 0.24; that for GREWTEQETLLLLEALEMYKDDWNKVEEHVGSRTQDECILHFLR [S27E] was 0.105 ± 0.072.

For GREWTEQETLLLLEALEMYKDDWNKVVEHVGSRTQDECILHFLR [S27V], the abundance fitness stood at 0.039 ± 0.076. The value for GREWTEQETLLLLEALEMYKDDWNKVHEHVGSRTQDECILHFLR [S27H] was 0.063 ± 0.072. The value for GREWTEQETLLLLEALEMYKDDWNKVKEHVGSRTQDECILHFLR [S27K] was 0.145 ± 0.071. For GREWTEQETLLLLEALEMYKDDWNKVWEHVGSRTQDECILHFLR [S27W], the abundance fitness was -0.56 ± 0.15. The value for GREWTEQETLLLLEALEMYKDDWNKVQEHVGSRTQDECILHFLR [S27Q] was 0.246 ± 0.1; that for GREWTEQETLLLLEALEMYKDDWNKVLEHVGSRTQDECILHFLR [S27L] was -0.375 ± 0.13. The value for GREWTEQETLLLLEALEMYKDDWNKVYEHVGSRTQDECILHFLR [S27Y] was -0.305 ± 0.13; that for GREWTEQETLLLLEALEMYKDDWNKVAEHVGSRTQDECILHFLR [S27A] was 0.168 ± 0.076; that for GREWTEQETLLLLEALEMYKDDWNKVNEHVGSRTQDECILHFLR [S27N] was -0.204 ± 0.092. With GREWTEQETLLLLEALEMYKDDWNKVGEHVGSRTQDECILHFLR [S27G], the abundance fitness came to 0.056 ± 0.068. As to GREWTEQETLLLLEALEMYKDDWNKVDEHVGSRTQDECILHFLR [S27D], the abundance fitness is -0.558 ± 0.14. For GREWTEQETLLLLEALEMYKDDWNKVIEHVGSRTQDECILHFLR [S27I], the abundance fitness was -0.149 ± 0.13. On to GREWTEQETLLLLEALEMYKDDWNKVPEHVGSRTQDECILHFLR [S27P], for which the abundance fitness is -0.319 ± 0.081.

As for GREWTEQETLLLLEALEMYKDDWNKVCEHVGSRTQDECILHFLR [S27C], the abundance fitness is -0.119 ± 0.1. The value for GREWTEQETLLLLEALEMYKDDWYKVSEHVGSRTQDECILHFLR [N24Y] was -0.097 ± 0.088. GREWTEQETLLLLEALEMYKDDWNKHSEHVGSRTQDECILHFLR [V26H]: the abundance fitness is -0.683 ± 0.2.

Regarding GREWTEQETLLLLEALEMYKDDWNKESEHVGSRTQDECILHFLR [V26E], the abundance fitness was -0.406 ± 0.17. As for GREWTEQETLLLLEALEMYKDDWNKGSEHVGSRTQDECILHFLR [V26G], the abundance fitness was -0.686 ± 0.21. The value for GREWTEQETLLLLEALEMYKDDWNKNSEHVGSRTQDECILHFLR [V26N] was -0.533 ± 0.41. The value for GREWTEQETLLLLEALEMYKDDWNKYSEHVGSRTQDECILHFLR [V26Y] was -0.57 ± 0.26; that for GREWTEQETLLLLEALEMYKDDWNKQSEHVGSRTQDECILHFLR [V26Q] was -0.533 ± 0.21; that for GREWTEQETLLLLEALEMYKDDWNKDSEHVGSRTQDECILHFLR [V26D] was -0.768 ± 0.21. As for GREWTEQETLLLLEALEMYKDDWNKTSEHVGSRTQDECILHFLR [V26T], the figure is 0.029 ± 0.11. GREWTEQETLLLLEALEMYKDDWNKISEHVGSRTQDECILHFLR [V26I]: the abundance fitness is -0.051 ± 0.19. As for GREWTEQETLLLLEALEMYKDDWNKCSEHVGSRTQDECILHFLR [V26C], the figure is 0.543 ± 0.29; as for GREWTEQETLLLLEALEMYKDDWNKLSEHVGSRTQDECILHFLR [V26L], -0.513 ± 0.09. The value for GREWTEQETLLLLEALEMYKDDWNKRSEHVGSRTQDECILHFLR [V26R] was -0.424 ± 0.091; that for GREWTEQETLLLLEALEMYKDDWNKASEHVGSRTQDECILHFLR [V26A] was 0.006 ± 0.083; that for GREWTEQETLLLLEALEMYKDDWNKWSEHVGSRTQDECILHFLR [V26W] was -0.494 ± 0.19.

Take GREWTEQETLLLLEALEMYKDDWNKPSEHVGSRTQDECILHFLR [V26P]: the abundance fitness was -0.919 ± 0.22.

Take GREWTEQETLLLLEALEMYKDDWNIVSEHVGSRTQDECILHFLR [K25I]: the abundance fitness was -0.426 ± 0.13. The value for GREWTEQETLLLLEALEMYKDDWNCVSEHVGSRTQDECILHFLR [K25C] was -0.064 ± 0.075. As for GREWTEQETLLLLEALEMYKDDWNDVSEHVGSRTQDECILHFLR [K25D], the figure is -0.331 ± 0.11. The value for GREWTEQETLLLLEALEMYKDDWNGVSEHVGSRTQDECILHFLR [K25G] was -0.038 ± 0.055. With GREWTEQETLLLLEALEMYKDDWNTVSEHVGSRTQDECILHFLR [K25T], the abundance fitness is -0.129 ± 0.088. Consider GREWTEQETLLLLEALEMYKDDWNQVSEHVGSRTQDECILHFLR [K25Q], for which the abundance fitness was -0.122 ± 0.07.

As for GREWTEQETLLLLEALEMYKDDWNLVSEHVGSRTQDECILHFLR [K25L], the abundance fitness came to 0.072 ± 0.056. For the variant GREWTEQETLLLLEALEMYKDDWNNVSEHVGSRTQDECILHFLR [K25N], the abundance fitness is -0.245 ± 0.22.

For GREWTEQETLLLLEALEMYKDDWNRVSEHVGSRTQDECILHFLR [K25R], the abundance fitness was 0.072 ± 0.067. On to GREWTEQETLLLLEALEMYKDDWNHVSEHVGSRTQDECILHFLR [K25H], for which the abundance fitness was -0.045 ± 0.096.

For the variant GREWTEQETLLLLEALEMYKDDWNYVSEHVGSRTQDECILHFLR [K25Y], the abundance fitness is -0.473 ± 0.12. As for GREWTEQETLLLLEALEMYKDDWNWVSEHVGSRTQDECILHFLR [K25W], the figure is -0.562 ± 0.13; as for GREWTEQETLLLLEALEMYKDDWNAVSEHVGSRTQDECILHFLR [K25A], 0.091 ± 0.061. As for GREWTEQETLLLLEALEMYKDDWNSVSEHVGSRTQDECILHFLR [K25S], the figure is -0.011 ± 0.062; as for GREWTEQETLLLLEALEMYKDDWNEVSEHVGSRTQDECILHFLR [K25E], -0.14 ± 0.11; as for GREWTEQETLLLLEALEMYKDDWNMVSEHVGSRTQDECILHFLR [K25M], 0.194 ± 0.16. The value for GREWTEQETLLLLEALEMYKDDWNPVSEHVGSRTQDECILHFLR [K25P] was -0.377 ± 0.083. Consider GREWTEQETLLLLEALEMYKDDWNKVSDHVGSRTQDECILHFLR [E28D], for which the abundance fitness was 0.373 ± 0.27. As for GREWTEQETLLLLEALEMYKDDWNKVSIHVGSRTQDECILHFLR [E28I], the figure is -0.16 ± 0.19. As for GREWTEQETLLLLEALEMYKDDWNKVSHHVGSRTQDECILHFLR [E28H], the figure is -0.723 ± 0.31; as for GREWTEQETLLLLEALEMYKDDWNKVSAHVGSRTQDECILHFLR [E28A], -0.434 ± 0.097. In the case of GREWTEQETLLLLEALEMYKDDWNKVSKHVGSRTQDECILHFLR [E28K], the abundance fitness was -0.269 ± 0.11.

For GREWTEQETLLLLEALEMYKDDWNKVSCHVGSRTQDECILHFLR [E28C], the abundance fitness was -0.2 ± 0.12.

On to GREWTEQETLLLLEALEMYKDDWNKVSGHVGSRTQDECILHFLR [E28G], for which the abundance fitness is -0.112 ± 0.085.

Values taken from the Human Domainome abundance scans (Beltran et al. 2025).
